In article doi:10.1101/2025.02.04.636450:

Experiments:
[1] = target: circularly permuted AaLS with a Strep II tag in place of the His-tag region (cpAaLS(Strep)) (Aquifex aeolicus)
[2] = target: circularly permuted AaLS with a His-tag in the linker connecting native termini (cpAaLS(His)) (Aquifex aeolicus); assay: absorbance ratio at 280/475 nm
[3] = target: wildtype lumazine synthase from Aquifex aeolicus (AaLS-wt) (Aquifex aeolicus) (UniProt O66529); assay: absorbance ratio at 280/475 nm

| stoichiometry N [1] | Substance | GFP molecules per pentamer (GFP molecules per pentamer) [2] | GFP molecules per pentamer (GFP molecules per pentamer) [3] |
| --- | --- | --- | --- |
| 5 | circularly permuted AaLS with a Strep II tag in place of the His-tag region (cpAaLS(Strep)) |  |  |
|  | cpAaLS-GFP-SsrA (GFP-SsrA fused to the C-terminus of cpAaLS) | 0.14 | 0.11 |
